According to the supplement of paper PMC9170038:

Legend:
MS2 coat protein [1] = experiment: apparent KD of MS2 coat protein, switch ON state; designed switch direction (-1 OFF switch, 1 ON switch): 1; higher = weaker reporter binding; settings: FMN input: 0 or 200 uM; Eterna round: R93 (includes R88 designs)
Outline: (§1)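 Illumina sequencing clusters were used for on-chip transcription of designed RNA switches. Titration with SNAP-549-labelled MS2 coat protein followed, in twofold steps from 0.7 or 1.5 nM to 3 µM in 100 mM Tris-HCl pH 7.5, 80 mM KCl, 4 mM MgCl2, without or with constant ligand. Apparent KD is each design's median of fits to normalised cluster binding curves.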

MS2 coat protein [2] = experiment: apparent KD of MS2 coat protein, switch OFF state (with FMN for OFF switches, without FMN for ON switches); designed switch direction (-1 OFF switch, 1 ON switch): 1; higher = weaker reporter binding; settings: FMN input: 0 or 200 uM; Eterna round: R93 (includes R88 designs)
Outline: as §1

Sequence	apparent KD of MS2 coat protein (MS2 coat protein [1])	apparent KD of MS2 coat protein (MS2 coat protein [2])
AAAUAAAUGACUGAGGAUAUGUCGAAGAAAACAUGAGGAUCACCCAUGUGAUAAUAAAAAGGGUGAUAGAAGGUAGUCAACAAAC [Mod 10 of Pariah 4 by Hyphema in Round 1]	323 nM	262 nM
AAUACACAUGAGGAUCACCCAUGUAGAAAGAAGGCAGGAUAUCAGAUCCACAUGUGAUAAUGAGAAGGGCCAAUAU [SS 1 Tesla 10]	21.9 nM	171 nM
AUAUAUAUAAGGUAGGAUAUCCUAAAGUAAACAUGAGGAUCACCCAUGUAAAGAAAGAAACUCAUGGAGAAGGACCAUAUAUAUA	15.5 nM	20.2 nM
CUACAACAUGAGGAUCACCCAUGUCGUAGAAAUCAAGGAUAUGGGUCGGUAACAUGCGUACCAGAAGGUGAGGAAA [Rebicequ]	29.3 nM	30.4 nM
AAAAAACAUGAGGAUCACCCAUGUAUAAAAUGGGAAGGAUAUACUAAGACGAAAGUCAUAGUAGAAGGUCCAAAAA [76%, Meechl, 12]	44.5 nM	193 nM
GGGAGGAAGAGAGAGGAUAUCCAAAGGAAAACAUGAGGAUCACCCAUGUAAAAGGUAGGAAAUUGGGAGAAGGCUCAAGAGACGG [salish99-ss2-053]	26.7 nM	34.2 nM
AACCGCGCUAUACAGGAUAUCACAAUAUCGACAUGAGGAUCACCCAUGUGACUGGCACCAGUCGGUGAGAAGGGUGAAGUGCGGC [Tilemage]	149 nM	238 nM
AUAAAAGAAGCGAAGGAUAUCCAACUCAAAACAUGAGGAUCACCCAUGUAAAGAAAUAAAAAAUGGGAGAAGGUCGCAAAGAAUA [73%, More Fisker Same State 2, D3, 14]	582 nM	40.1 nM
AUAUGAUCAUGUGAGGAUAUCCAUAAUAAAACAUGAGGAUCACCCAUGUAUAGAUACUAAUAAUGGGAGAAGGCACAUGAUCAAU [SS 2 M43]	19.9 nM	24 nM
CGAAGACAUGAGGAUCACCCAUGUGGGAAUAUGGGAGGAUAUACAAAGACGAGAGUCAGAGUAGAAGGCCUAGGAA [salish99-ss1-104]	23.3 nM	56.6 nM
AGAAAACAUGAGGAUCACCCAUGUAGAAAUAUGGGAGGAUAUACAUAGACGAAAGUCAUAGUAGAAGGCCUAAAGA [Mat - Same State 1 - Meechl mod - D128]	15 nM	49.4 nM
ACUACACAUGAGGAUCACCCAUGUCAGGCCGGACUAGGAUAUUAUAAACCAGAGUAAAAAUAAGAAGGAGUAGGAA [JR_SS001_Sub310]	39.2 nM	61.3 nM
AGAAAUAAAUGAGAGGAUAUCCAAAAGAAAACAUGAGGAUCACCCAUGUAAAAGAAAAUAAAGUGGGAGAAGGCUCGAAAUAAAG [80%, More Helter Skelter 2]	23.3 nM	43.5 nM
GAAGACAUAGUUCAGGAUAUAGGAAUAGUCACAUGAGGAUCACCCAUGUGCAUUUAUAUGCGCACUUAGAAGGGAGGUAGUUAUC [SameState2 Malc#23]	36 nM	25 nM
AAAACACAUGAGGAUCACCCAUGUAGAAAUACGGGAGGAUAUGCGAAAACGAAAGACAAAGUAGAAGGCCUAAAAG [saturn 8]	35.9 nM	69.8 nM
AAAGACACGGUGCAGGAUAUAGUAAUAGUCACAUGAGGAUCACCCAUGUUCUUUUAUAAGAACGAUUAGAAGGGCGGUGAAAAAA [SameState2 Malc#10]	182 nM	92.6 nM
AAGAAAGAAACAUAGGAUAUCAAGGAUAUAACAUGAGGAUCACCCAUGUAAAUACGAAAGUAUAAUGAGAAGGAUGGAUGAUCUUC [Meechl MS2 SS2]	28.9 nM	44.9 nM
CGUCUACAUGAGGAUCACCCAUGUCAAGAGUGGUCAGGAUAUGGUAUUAGAUGAGUAUGGCCAGAAGGGACAUAAG [JR_SS001_Sub715]	167 nM	386 nM
AAAAAACAUGAGGAUCACCCAUGUAAUACAACAUCAGGAUAUUGGUUUUACUAUGUAUUACAAGAAGGGAUGAAAA [Same State 1.3b (Same State 1 - Omei 2 )]	181 nM	92.4 nM
AAAAUACAUGAGGAUCACCCAUGUGAGUCGAACGCAGGAUAUGCCCGUUGAAAAGGGCGGGCAGAAGGGUGCCGAA [SameState1-IV]	34.4 nM	61.7 nM
CGCUCACAUGAGGAUCACCCAUGUCCUAGGAGGUCAGGAUAUAGCUCGGAUGCGUUGAGGCUAGAAGGGACAGGUG [JR_SS001_Sub606]	78.6 nM	59.5 nM
